The values below come from the RNAGym collection of RNA variant scans (doi:10.1073/pnas.2313332121).

First the molecules themselves.
B1: TPR t1 (parent)
chain: GACCAAUCUGCCCUCAGAGCUCGAGAACAUCUUCGGAUGCAGAGGAGGCAGGCUUCGGUGGCGCGAUAGCGCCAACGUCCUCAACCUCCAAUGCAUCCCACCACAUGAUGAUGCCUGAAGAGCCUUGGUUUUUUG

Variants of B1 are the subject of this data set. As to the kind of experiment: polymerase ribozyme fitness, log enrichment relative to wild type (log ratio); higher = more active; in vitro selection for triplet polymerase activity. The method, boiled down:
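Fitness is a logarithmic measure of how a genotype enriched relative to the wild type, with replicate averages weighted by inverse variance. The logarithm uses base 2, and enrichment came from Illumina sequencing of input and output libraries. Those libraries were PCR-built, transcribed mutants of each subunit of a heterodimeric triplet polymerase ribozyme, passed through one triplicate in vitro selection round that included frozen incubation at −7 °C, gel excision of extended constructs and streptavidin-bead capture. Genotypes were kept only if they had ≥10 input reads and ≥1 read per output.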
Regarding G93U U109C, the “polymerase ribozyme fitness (log ratio)” value was -5.62.

On to C22G U87G G113U A119G G127C, for which the “polymerase ribozyme fitness (log ratio)” value is -4.58.

In the case of C76A G127U, the “polymerase ribozyme fitness (log ratio)” value is -2.17.

Consider C115U G128C, for which the “polymerase ribozyme fitness (log ratio)” value is -3.16.

On to U9A G39U G48A C72G C88U C89U G110C, for which the “polymerase ribozyme fitness (log ratio)” value is -6.13.

In the case of A91C U96A A103U, the “polymerase ribozyme fitness (log ratio)” value is -7.59.

For U55G C73A, the “polymerase ribozyme fitness (log ratio)” value stood at 0.256.

Take C11U C73G: the “polymerase ribozyme fitness (log ratio)” value came to 0.0999.

As for G57C C82U, the “polymerase ribozyme fitness (log ratio)” value turned out to be 0.151.

Turning to C49U C94U, the “polymerase ribozyme fitness (log ratio)” value was -1.08.

In the case of C76A C85G, the “polymerase ribozyme fitness (log ratio)” value is -1.03.

For C97A G120A, the “polymerase ribozyme fitness (log ratio)” value is -3.9.

Take G71U U92C: the “polymerase ribozyme fitness (log ratio)” value is -1.11.

For A50U G128A, the “polymerase ribozyme fitness (log ratio)” value was -3.35.

In the case of G69A C82U, the “polymerase ribozyme fitness (log ratio)” value was -2.48.

Regarding C3U G48A C72U U129G, the “polymerase ribozyme fitness (log ratio)” value is -4.31.

On to C11A C82A, for which the “polymerase ribozyme fitness (log ratio)” value is -2.13.

Take C89U: the “polymerase ribozyme fitness (log ratio)” value was -0.195.

On to G19U G44A C70A C72U, for which the “polymerase ribozyme fitness (log ratio)” value is -6.42.

Consider A2G C20G G71C G113C, for which the “polymerase ribozyme fitness (log ratio)” value was -3.

As to G58U A111C, the “polymerase ribozyme fitness (log ratio)” value was -0.00673.

For the variant C8A C70U C72U, the “polymerase ribozyme fitness (log ratio)” value is -0.317.

For A91C A95U C101A, the “polymerase ribozyme fitness (log ratio)” value is -4.41.

Consider G69C G77A C98U U126C U130C, for which the “polymerase ribozyme fitness (log ratio)” value is -3.72.

As for A100U U132A, the “polymerase ribozyme fitness (log ratio)” value is -0.727.

As to C11G U33C C73U C99U A111C, the “polymerase ribozyme fitness (log ratio)” value was -6.85.

Turning to A74C C102U, the “polymerase ribozyme fitness (log ratio)” value is -1.76.

With C20U A29G G61U C115A U116C G117U, the “polymerase ribozyme fitness (log ratio)” value was -1.83.

In the case of C89U G120A U129G, the “polymerase ribozyme fitness (log ratio)” value was -1.07.

Turning to G19A G44C U96A G120C, the “polymerase ribozyme fitness (log ratio)” value is -3.85.

As for U9G C13A, the “polymerase ribozyme fitness (log ratio)” value was -0.971.

As to C40U G42C C53A C104A, the “polymerase ribozyme fitness (log ratio)” value is -4.78.

Take G48A A84G: the “polymerase ribozyme fitness (log ratio)” value was -0.314.

Consider G45A A83C A84U A100G G122U C123G, for which the “polymerase ribozyme fitness (log ratio)” value was -5.96.

In the case of A16U G63A, the “polymerase ribozyme fitness (log ratio)” value was -2.16.

As to G60A G120U A121C, the “polymerase ribozyme fitness (log ratio)” value stood at 0.445.

With C12A C89A, the “polymerase ribozyme fitness (log ratio)” value is -1.87.

On to C13G G39A G113U C114A, for which the “polymerase ribozyme fitness (log ratio)” value was -4.57.

As to C28U G58C G113C U132C, the “polymerase ribozyme fitness (log ratio)” value was -4.51.

For the variant C22A C53U C64U C124U, the “polymerase ribozyme fitness (log ratio)” value is -3.7.

Turning to G63A C86U, the “polymerase ribozyme fitness (log ratio)” value was -0.411.

For the variant C73G G117U, the “polymerase ribozyme fitness (log ratio)” value was -3.09.

For the variant C40U C98G, the “polymerase ribozyme fitness (log ratio)” value is -6.34.

Take G48U C56U C104A: the “polymerase ribozyme fitness (log ratio)” value is -2.25.

In the case of G48U U132A, the “polymerase ribozyme fitness (log ratio)” value was -0.856.

In the case of G44U G47C C53U C72G, the “polymerase ribozyme fitness (log ratio)” value is -4.81.

As for C4G C13G C49A G60A, the “polymerase ribozyme fitness (log ratio)” value was -4.79.

Regarding U87C C89A G113A, the “polymerase ribozyme fitness (log ratio)” value was -2.28.

Consider G44U U106G A119G, for which the “polymerase ribozyme fitness (log ratio)” value is -1.15.

In the case of A29U G45C G61A A111G C124G, the “polymerase ribozyme fitness (log ratio)” value is -3.05.

Consider C40U A90C U132A, for which the “polymerase ribozyme fitness (log ratio)” value is -1.85.

With A27U A29C G47A C53G A121C, the “polymerase ribozyme fitness (log ratio)” value is -3.53.

On to G61A C88A, for which the “polymerase ribozyme fitness (log ratio)” value is -0.575.

On to A6G U78C C102A C124A U130A, for which the “polymerase ribozyme fitness (log ratio)” value was -1.35.

Take A18U A29G A43U G52A G60A C88U C94U: the “polymerase ribozyme fitness (log ratio)” value is -5.06.

With C49G C123A, the “polymerase ribozyme fitness (log ratio)” value was -0.0129.

In the case of U9A C53A U87G, the “polymerase ribozyme fitness (log ratio)” value is 0.985.

As for G10U C15G U21A A90G G93U G120C G135U, the “polymerase ribozyme fitness (log ratio)” value was -3.07.

As to U54A C86U, the “polymerase ribozyme fitness (log ratio)” value amounted to 0.24.

On to C12U C20G A83C C98U A121U, for which the “polymerase ribozyme fitness (log ratio)” value was -4.1.

As for G57A C73U G110A, the “polymerase ribozyme fitness (log ratio)” value is -2.06.

As to A50U C82U, the “polymerase ribozyme fitness (log ratio)” value was -1.15.

Turning to C73U A119G C123G, the “polymerase ribozyme fitness (log ratio)” value is 2.02.

With A46C G93U, the “polymerase ribozyme fitness (log ratio)” value is -1.86.

As to C8G A46U, the “polymerase ribozyme fitness (log ratio)” value was -0.191.

Regarding U9C A27U C73A C99A, the “polymerase ribozyme fitness (log ratio)” value is -7.21.

Consider G47U C72A, for which the “polymerase ribozyme fitness (log ratio)” value was -0.885.

In the case of G17U G63A U112A U125G, the “polymerase ribozyme fitness (log ratio)” value was -3.29.

On to U21G G52A C102A C124U, for which the “polymerase ribozyme fitness (log ratio)” value is -2.14.

With C73G G93A, the “polymerase ribozyme fitness (log ratio)” value is -1.13.

For C8G C49G, the “polymerase ribozyme fitness (log ratio)” value was 0.323.

Regarding G51U A84C C88A A121C, the “polymerase ribozyme fitness (log ratio)” value is -1.74.

For C49A C72U G113A G128C, the “polymerase ribozyme fitness (log ratio)” value is -4.46.

As for C72A C124U, the “polymerase ribozyme fitness (log ratio)” value was determined as 1.25.

For the variant G47U G48C, the “polymerase ribozyme fitness (log ratio)” value is -1.51.

As to C22U C34U C73U A83C C124G, the “polymerase ribozyme fitness (log ratio)” value was -6.07.

In the case of G36U C73A C124U, the “polymerase ribozyme fitness (log ratio)” value came to 0.315.

For G45U G57C A118U, the “polymerase ribozyme fitness (log ratio)” value is -0.526.

Take C13A G52U U54C C70U C124U: the “polymerase ribozyme fitness (log ratio)” value was -1.03.

As for C34A G120C U130G, the “polymerase ribozyme fitness (log ratio)” value was -3.21.

With A43U C73G C85U C98G C115U, the “polymerase ribozyme fitness (log ratio)” value is -7.11.

For A37U C89U A108G, the “polymerase ribozyme fitness (log ratio)” value is -3.18.

For G57C C89A A95G A111U A121U, the “polymerase ribozyme fitness (log ratio)” value was -2.97.

As to G36U A68C C70U U87A G117U, the “polymerase ribozyme fitness (log ratio)” value was -5.69.
